The source of these data is patent publication US20200231673A1 (Hoffmann-La Roche, published 2020).

Test [1] addresses human CD3 (particularly the epsilon subunit of CD3) (human, UniProt P07766 23-207). As to the kind of experiment: cell-based or functional assay.
The target of test [2] is human Her3 (human, UniProt P21860 20-1342). Briefly: cell-based or functional assay.

B1: Her2 TCB: anti-Her2/anti-CD3 '2+1 IgG CrossFab, inverted' molecule with charge modifications (bispecific antibody)
light: EVQLLESGGGLVQPGGSLRLSCAASGFTFSTYAMNWVRQAPGKGLEWVSRIRSKYNNYATYYADSVKGRFTISRDDSKNTLYLQMNSLRAEDTAVYYCVRHGNFGNSYVSWFAYWGQGTLVTVSSASVAAPSVFIFPPSDEQLKSGTASVVCLLNNFYPREAKVQWKVDNALQSGNSQESVTEQDSKDSTYSLSSTLTLSKADYEKHKVYACEVTHQGLSSPVTKSFNRGEC
chain 1: not shown
chain 2: not shown
chain 3: not shown
For the molecule B1, the “EC50 of activation of Jurkat-NFAT reporter cells via CD3 after 5 h (luminescence, KPL4 tumor cells)” value in test [1] was 34.4 pM.

B2: Her3 TCB: anti-Her3/anti-CD3 '2+1 IgG CrossFab' molecule with charge modifications (bispecific antibody)
light: EVQLLESGGGLVQPGGSLRLSCAASGFTFSTYAMNWVRQAPGKGLEWVSRIRSKYNNYATYYADSVKGRFTISRDDSKNTLYLQMNSLRAEDTAVYYCVRHGNFGNSYVSWFAYWGQGTLVTVSSASVAAPSVFIFPPSDEQLKSGTASVVCLLNNFYPREAKVQWKVDNALQSGNSQESVTEQDSKDSTYSLSSTLTLSKADYEKHKVYACEVTHQGLSSPVTKSFNRGEC
chain 1: not shown
chain 2: QVQLVQSGAEVKKPGASVKVSCKASGYTFRSSYISWVRQAPGQGLEWMGWIYAGTGSPSYNQKLQGRVTMTTDTSTSTAYMELRSLRSDDTAVYYCARHRDYYSNSLTYWGQGTLVTVSSASTKGPSVFPLAPSSKSTSGGTAALGCLVEDYFPEPVTVSWNSGALTSGVHTFPAVLQSSGLYSLSSVVTVPSSSLGTQTYICNVNHKPSNTKVDEKVEPKSCDKTHTCPPCPAPEAAGGPSVFLFPPKPKDTLMISRTPEVTCVVVDVSHEDPEVKFNWYVDGVEVHNAKTKPREEQYNSTYRVVSVLTVLHQDWLNGKEYKCKVSNKALGAPIEKTISKAKGQPREPQVCTLPPSRDELTKNQVSLSCAVKGFYPSDIAVEWESNGQPENNYKTTPPVLDSDGSFFLVSKLTVDKSRWQQGNVFSCSVMHEALHNHYTQKSLSLSP
chain 3: not shown
For the molecule B2, in test [2], the “EC50 of tumor cell lysis (LDH release), KPL4 cells, 24 h” value is 2.54 pM; the “EC50 of tumor cell lysis (LDH release), KPL4 cells, 48 h” value came to 0.53 pM; the “EC50 of tumor cell lysis determined by Caspase 3/7 activity (luminescence), KPL-4-Caspase-3/7 GloSensor cells, 6.5 h” value is 0.7 pM. Moreover, in test [1], the “EC50 of activation of Jurkat-NFAT reporter cells via CD3 after 5 h (luminescence, KPL4 tumor cells)” value stood at 22 pM.
